{"source": "paper PMC2674214", "about": "(PLoS ONE, 2009)", "target": "rHA of clade 1 H5N1 virus A/Viet Nam/1203/04 (Influenza A virus A/Viet Nam/1203/2004 …, UniProt Q5EP31, strain)", "experiment": "ELISA", "data": [{"binder": "AVFluIgG03 (antibody, V domains shown, also called rhAb AVFluIgG03; AVFluIg03; source: SF9 cells, purified on a Protein A column) VH: LESGGGLVQPGGSLRVSCTNSGFTFSDYAMSWVRQAPGKGLEWVSAISGNGGSSTYYADSVKGRFTISRDNSKNTMYLQMNSLRAEDTAVYYCVRDDSYDGGGQYGLHNWFDSWGQGTLVTV VL: ELTQPPSVSGAPGQRVTISCTGSSSNIGAGYDVHWYQQLPGTAPKLLIYGNSNRPSGVPDRFSGSKSGTSASLAITGLQAEDEADYYCQSYDSSLVVFGGGTKLTVL", "values": [{"measurement": "binding result", "value": "no binding"}]}]}
